Molecular target: OsPUB2 recombinant protein, bacterially expressed ((His)6-OsPUB2 and MBP-OsPUB2) (rice (Oryza sativa L.))

## OsPUB3 recombinant protein, bacterially expressed ((His)6-OsPUB3 and MBP-OsPUB3) (natural protein)
  apparent half-life of MBP-OsPUB2 in mock-treated rice cell-free extract when mixed with (His)6-OsPUB3 (150 min without it); cell-free degradation assay, 0-6 h at 30°C: 4.17 h
  apparent half-life of MBP-OsPUB3 in mock-treated rice cell-free extract when mixed with (His)6-OsPUB2 (140 min without it); cell-free degradation assay, 0-6 h at 30°C: 5.83 h
